Reference: patent publication US20050118674A1, “Engineering of Controlled Deamidation Rates in Peptides, Proteins, and Similar Structures” (priority 2003, published 2005)

Experiment: First-order nonenzymatic deamidation of pentapeptides in Tris buffer
Assay type: physicochemical
Conditions: 0.15 M Tris HCl; for First-Order Deamidation Halftimes of GlyXxxAsnYyyGly: pH 7.4, 37.0° C., Asn pentapeptides; for First-Order Deamidation Halftimes of GlyXxxGlnYyyGly: pH 7.4, 37.0 ° C., Gln pentapeptides, 52 values measured, rest derived from surface fitting
Procedure, shortened: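 Pentapeptides containing Asn or Gln in varied flanking sequences incubated at 37° C., pH 7.4, 0.15 M Tris buffer; first-order deamidation rates measured. Some Asn values estimated from remaining data; many Gln values derived from surface fitting rather than measured.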

Row | Substance | First-Order Deamidation Halftimes of GlyXxxAsnYyyGly | First-Order Deamidation Halftimes of GlyXxxGlnYyyGly
1 | GlySerAsnThrGly (GSNTG; printed: GlySerAsnThrGly) | 45.7 days | 
2 | GlySerAsnTrpGly (GSNWG; printed: GlySerAsnTrpGly) | 76.8 days | 
3 | GlySerAsnTyrGly (GSNYG; printed: GlySerAsnTyrGly) | 64.7 days | 
4 | GlySerAsnValGly (GSNVG; printed: GlySerAsnValGly) | 233 days | 
5 | GlySerGlnAlaGly (GSQAG; printed: GlySerGlnAlaGly) |  | 6400 days
6 | GlySerGlnArgGly (GSQRG; printed: GlySerGlnArgGly) |  | 7200 days
7 | GlySerGlnAspGly (GSQDG; printed: GlySerGlnAspGly) |  | 8200 days
8 | GlySerGlnCysGly (GSQCG; printed: GlySerGlnCysGly) |  | 2100 days
9 | GlySerGlnGluGly (GSQEG; printed: GlySerGlnGluGly) |  | 8100 days
10 | GlySerGlnGlyGly (GSQGG; printed: GlySerGlnGlyGly) |  | 700 days
11 | GlySerGlnHisGly (GSQHG; printed: GlySerGlnHisGly) |  | 6500 days
12 | GlySerGlnIleGly (GSQIG; printed: GlySerGlnIleGly) |  | 5900 days
13 | GlySerGlnLeuGly (GSQLG; printed: GlySerGlnLeuGly) |  | 6100 days
14 | GlySerGlnLysGly (GSQKG; printed: GlySerGlnLysGly) |  | 6300 days
15 | GlySerGlnMetGly (GSQMG; printed: GlySerGlnMetGly) |  | 5100 days
16 | GlySerGlnPheGly (GSQFG; printed: GlySerGlnPheGly) |  | 8300 days
17 | GlySerGlnProGly (GSQPG; printed: GlySerGlnProGly) |  | 10000 days
18 | GlySerGlnSerGly (GSQSG; printed: GlySerGlnSerGly) |  | 6000 days
19 | GlySerGlnThrGly (GSQTG; printed: GlySerGlnThrGly) |  | 5400 days
20 | GlySerGlnTrpGly (GSQWG; printed: GlySerGlnTrpGly) |  | 17000 days
21 | GlySerGlnTyrGly (GSQYG; printed: GlySerGlnTyrGly) |  | 13000 days
22 | GlySerGlnValGly (GSQVG; printed: GlySerGlnValGly) |  | 6800 days
23 | GlyThrAsnAlaGly (GTNAG; printed: GlyThrAsnAlaGly) | 24.6 days | 
24 | GlyThrAsnAmCysGly | 34.4 days | 
25 | GlyThrAsnArgGly (GTNRG; printed: GlyThrAsnArgGly) | 51.2 days | 
26 | GlyThrAsnAspGly (GTNDG; printed: GlyThrAsnAspGly) | 27.9 days | 
27 | GlyThrAsnCysGly (GTNCG; printed: GlyThrAsnCysGly) | 55.5 days | 

Row | Substance | First-Order Deamidation Halftimes of GlyXxxAsnYyyGly | First-Order Deamidation Halftimes of GlyXxxGlnYyyGly
28 | GlyThrAsnGluGly (GTNEG; printed: GlyThrAsnGluGly) | 60.8 days | 
29 | GlyThrAsnGlyGly (GTNGG; printed: GlyThrAsnGlyGly) | 1.04 days | 
30 | GlyThrAsnHisGly (GTNHG; printed: GlyThrAsnHisGly) | 9.6 days | 
31 | GlyThrAsnIleGly (GTNIG; printed: GlyThrAsnIleGly) | 279 days | 
32 | GlyThrAsnLeuGly (GTNLG; printed: GlyThrAsnLeuGly) | 110 days | 
33 | GlyThrAsnLysGly (GTNKG; printed: GlyThrAsnLysGly) | 57.6 days | 
34 | GlyThrAsnMetGly (GTNMG; printed: GlyThrAsnMetGly) | 47.6 days | 
35 | GlyThrAsnPheGly (GTNFG; printed: GlyThrAsnPheGly) | 76.4 days | 
36 | GlyThrAsnProGly (GTNPG; printed: GlyThrAsnProGly) | 6290 days | 
37 | GlyThrAsnSerGly (GTNSG; printed: GlyThrAsnSerGly) | 17.1 days | 
38 | GlyThrAsnThrGly (GTNTG; printed: GlyThrAsnThrGly) | 50.0 days | 
39 | GlyThrAsnTrpGly (GTNWG; printed: GlyThrAsnTrpGly) | 72.5 days | 
40 | GlyThrAsnTyrGly (GTNYG; printed: GlyThrAsnTyrGly) | 80.6 days | 
41 | GlyThrAsnValGly (GTNVG; printed: GlyThrAsnValGly) | 237 days | 
42 | GlyThrGlnAlaGly (GTQAG; printed: GlyThrGlnAlaGly) |  | 4300 days
43 | GlyThrGlnArgGly (GTQRG; printed: GlyThrGlnArgGly) |  | 5100 days
44 | GlyThrGlnAspGly (GTQDG; printed: GlyThrGlnAspGly) |  | 6300 days
45 | GlyThrGlnCysGly (GTQCG; printed: GlyThrGlnCysGly) |  | 1000 days
46 | GlyThrGlnGluGly (GTQEG; printed: GlyThrGlnGluGly) |  | 5900 days
47 | GlyThrGlnGlyGly (GTQGG; printed: GlyThrGlnGlyGly) |  | 670 days
48 | GlyThrGlnHisGly (GTQHG; printed: GlyThrGlnHisGly) |  | 4500 days
49 | GlyThrGlnIleGly (GTQIG; printed: GlyThrGlnIleGly) |  | 5300 days
50 | GlyThrGlnLeuGly (GTQLG; printed: GlyThrGlnLeuGly) |  | 5200 days
51 | GlyThrGlnLysGly (GTQKG; printed: GlyThrGlnLysGly) |  | 4800 days
52 | GlyThrGlnMetGly (GTQMG; printed: GlyThrGlnMetGly) |  | 3700 days
53 | GlyThrGlnPheGly (GTQFG; printed: GlyThrGlnPheGly) |  | 6800 days
54 | GlyThrGlnProGly (GTQPG; printed: GlyThrGlnProGly) |  | 7500 days

Row | Substance | First-Order Deamidation Halftimes of GlyXxxAsnYyyGly | First-Order Deamidation Halftimes of GlyXxxGlnYyyGly
55 | GlyThrGlnSerGly (GTQSG; printed: GlyThrGlnSerGly) |  | 4200 days
56 | GlyThrGlnThrGly (GTQTG; printed: GlyThrGlnThrGly) |  | 4000 days
57 | GlyThrGlnTrpGly (GTQWG; printed: GlyThrGlnTrpGly) |  | 9700 days
58 | GlyThrGlnTyrGly (GTQYG; printed: GlyThrGlnTyrGly) |  | 8400 days
59 | GlyThrGlnValGly (GTQVG; printed: GlyThrGlnValGly) |  | 5100 days
60 | GlyTrpAsnAlaGly (GWNAG; printed: GlyTrpAsnAlaGly) | 30.7 days | 
61 | GlyTrpAsnAmCysGly | 42.9 days | 
62 | GlyTrpAsnArgGly (GWNRG; printed: GlyTrpAsnArgGly) | 73.9 days | 
63 | GlyTrpAsnAspGly (GWNDG; printed: GlyTrpAsnAspGly) | 43.6 days | 
64 | GlyTrpAsnCysGly (GWNCG; printed: GlyTrpAsnCysGly) | 83.1 days | 
65 | GlyTrpAsnGluGly (GWNEG; printed: GlyTrpAsnGluGly) | 75.7 days | 
66 | GlyTrpAsnGlyGly (GWNGG; printed: GlyTrpAsnGlyGly) | 1.75 days | 
67 | GlyTrpAsnHisGly (GWNHG; printed: GlyTrpAsnHisGly) | 11.3 days | 
68 | GlyTrpAsnIleGly (GWNIG; printed: GlyTrpAsnIleGly) | 286 days | 
69 | GlyTrpAsnLeuGly (GWNLG; printed: GlyTrpAsnLeuGly) | 133 days | 
70 | GlyTrpAsnLysGly (GWNKG; printed: GlyTrpAsnLysGly) | 59.4 days | 
71 | GlyTrpAsnMetGly (GWNMG; printed: GlyTrpAsnMetGly) | 64.2 days | 
72 | GlyTrpAsnPheGly (GWNFG; printed: GlyTrpAsnPheGly) | 71.1 days | 
73 | GlyTrpAsnSerGly (GWNSG; printed: GlyTrpAsnSerGly) | 15.5 days | 
74 | GlyTrpAsnThrGly (GWNTG; printed: GlyTrpAsnThrGly) | 38.9 days | 
75 | GlyTrpAsnTrpGly (GWNWG; printed: GlyTrpAsnTrpGly) | 135 days | 
76 | GlyTrpAsnTyrGly (GWNYG; printed: GlyTrpAsnTyrGly) | 92.6 days | 
77 | GlyTrpAsnValGly (GWNVG; printed: GlyTrpAsnValGly) | 226 days | 
78 | GlyTrpGlnAlaGly (GWQAG; printed: GlyTrpGlnAlaGly) |  | 7400 days
79 | GlyTrpGlnArgGly (GWQRG; printed: GlyTrpGlnArgGly) |  | 8300 days
80 | GlyTrpGlnAspGly (GWQDG; printed: GlyTrpGlnAspGly) |  | 8800 days
